For assay [1], the target named is T1, mouse IL-18BP (construct not stated) (mouse, UniProt Q9Z0M9 29-193, limits assumed).
T1 construct: also called mIL18-BP
T1 sequence (looked up): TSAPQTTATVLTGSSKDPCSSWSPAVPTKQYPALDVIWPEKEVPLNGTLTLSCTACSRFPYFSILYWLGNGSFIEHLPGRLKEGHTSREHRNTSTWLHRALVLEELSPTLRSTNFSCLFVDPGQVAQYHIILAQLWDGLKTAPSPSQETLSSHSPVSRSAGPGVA
Briefly: KinExA, solution equilibrium. A general note: In KinExA the mixture passes briefly over coated beads that capture the unbound partner.

For assay [2], the target named is T2, human IL-18BP (recombinant, construct not stated) (human, UniProt O95998 31-194).
T2 construct: also called hIL-18BP; human monomeric IL18BP
T2 sequence: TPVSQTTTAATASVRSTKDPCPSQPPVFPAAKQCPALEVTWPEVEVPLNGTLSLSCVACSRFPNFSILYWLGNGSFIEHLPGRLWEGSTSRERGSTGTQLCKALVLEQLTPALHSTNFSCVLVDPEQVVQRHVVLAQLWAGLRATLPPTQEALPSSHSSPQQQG
Kind of assay: KinExA, solution equilibrium.

Assay [3] deals with T3, cynomolgus monkey IL-18BP (construct not stated) (cynomolgus monkey).
T3 construct: also called cyno IL18BP; cyno IL-18BP
Kind of assay: KinExA, solution equilibrium.

The target in assay [4] is T3, cynomolgus monkey IL-18BP (construct …). Kind of assay: KinExA (figure legend; the text prints 208 fM).
Another assay has as its target T4, mouse IL18-BP-Fc (mouse, UniProt Q9Z0M9 29-193, limits assumed).
T4 construct: R&D cat; 122-BP is named for the AbD35328 SPR; also called mouse IL18-BP-Fc (cat. 122-BP, R&D); mouse IL18-BP Fc fusion protein
T4 sequence (looked up): T1 sequence (looked up)
Briefly: Biacore T100; mouse IL18BP-Fc captured on anti-human Fc, Fab 300-2.21 nM in solution. Background: SPR reads the build-up and loss of mass on a sensor chip optically.

B1: mouse IL-18 (ligand, UniProt P70380 36-192, looked up)
chain: NFGRLHCTTAVIRNINDQVLFVDKRQPVFEDMTDIDQSASEPQTRLIIYMYKDSEVRGLAVTLSVKDSKMSTLSCKNKIISFEEMDPPENIDDIQSDLIFFQKRVPGHNKMEFESSLYEGHFLACQKEDDAFKLILKKKDENGDKSVMFTLTNLHQS
notes: also called mIL-18; mouse IL-18 biotinylated (Sino Biological)
B1: the Kd (usually the free concentration of one partner at which half of the binding sites on the other are occupied at equilibrium, for simple one-to-one binding) in assay [1] was approximately 3.7 pM.

B2: ADI-71739 (antibody, V domains shown)
VH: QLQLQESGPGLVKPSETLSLTCTVSGGSISSPDYPWGWIRQPPGKGLEWIGSIYYQGATYYNPSLKSRVTISVDTSKNQFSLKLSSVTAADTAVYYCARGPYRQLFDYWGQGTLVTVSS
VL: DIQMTQSPSSVSASVGDRVTITCRASQGISSWLAWYQQKPGKAPKLLIYAASSLQSGVPSRFSGSGSGTDFTLTISSLQPEDFATYYCQQGSVFPYTFGGGTKVEIK
Take B2: the Kd in assay [2] was approximately 0.291 pM; in assay [3] it was approximately 0.208 pM; in assay [4] it was 0.209 pM.

B3: ADI-71739 Fab fragment (Fab, V domains shown)
VH: B2 VH
VL: B2 VL
notes: Used for the Biacore measurement on mouse IL18BP-Fc; also called anti-IL18BP Fab
In the assay with mouse IL18-BP-Fc, B3 yielded a Kd of approximately 4000 pM.

The values above are taken from patent US20240425607A1 (COMPUGEN, published 2024).
